Assay results from FireProtDB (doi:10.1006/jmbi.2001.4728).

Settings: Pseudomonas aeruginosa (strain ATCC 15692 / DSM 22644 / CIP 104116 / JCM 14847 / LMG 12228 / 1C / PRS 101 / PAO1); pH 7; 10 °C; Urea; Fluorescence; sodium phosphate 50 mM; reversible: yes; whole UniProt chain shown

B1: Cytochrome c-551 wild type, P00099 (protein)
chain: MKPYALLSLLATGTLLAQGAWAEDPEVLFKNKGCVACHAIDTKMVGPAYKDVAAKFAGQAGAEAELAQRIKNGSQGVWGPIPMPPNAVSDDEAQTLAKWVLSQK
  denaturant m value: 1.1 kcal/mol/M
  denaturant midpoint (higher = more stable): 6.4 M
  unfolding free energy: 7.1 kcal/mol
